The target of data set [1] is T1, MBD2-MBD (methyl-binding domain of MBD2) (Homo sapiens, UniProt Q9UBB5 Q9UBB5:145-213). Briefly: FP; 10 nM hairpin; 50 mM NaCl, 1 mM MgCl2, 10 mM Tris pH 7.4, room temp. Particulars: tags: C-terminal 6xHis (pFBC6H baculovirus vector, Sf9), label: 5'-6FAM. As to the method:
(§1) 10 nM of annealed, fluorescently-labeled hairpin oligonucleotides with the sequence 5′-6FAM-[…]-3′ (SEQ ID NO:4) with no methylated CpGs (unmethylated hairpin), 2 methylated CpGs at the 2nd and 5th CpGs from the 5′ end (1 symmetrically methylated CpG hairpin), 3 methylated CpGs toward the 3′ end (3 asymmetrically methylated CpG hairpin), 4 methylated CpGs at the 1st, 2nd, 5th, and 6th CpGs from the 5′ end (2 symmetrically methylated CpG hairpin), or 6 methylated CpGs (3 symmetrically methylated CpG hairpin) were incubated with various concentrations of recombinant MBD2-MBD in a 50 μL reaction volume containing 4% glycerol, 1 mM MgCl₂, 0.5 mM EDTA, 0.5 mM DTT, 50 mM NaCl, 10 mM Tris-HCl (pH 7.4), 0.2% Tween-20 for 1 hour at room temperature with gentle shaking. Fluorescence polarization measurements were taken in triplicate using a Beckman Coulter DTX 880 Multimode Detector as described previously (Lee et al., (2005), supra). Briefly, fluorescence anisotropies (r) were calculated as
(§2) 6His-tagged methyl-binding domain of human MBD2 (MBD2-MBD) was expressed in Sf9 insect cells using a baculoviral expression system and purified using Ni-NTA Superflow beads (Qiagen, Valencia, Calif.). The affinities of MBD2-MBD for fluorescently labeled hairpin oligonucleotides containing various configurations of CpG methylation were then determined by fluorescence polarization (FIG. 2). […]

Data set [2] deals with T1, MBD2-MBD (methyl-binding domain of MBD2). Put plainly: FP; 10 nM hairpin; 50 mM NaCl, 1 mM MgCl2, 10 mM Tris pH 7.4, room temp; text gives 2 or 3 sites as 156 and 222 nM respectively but cites FIGS. 2A (three pairs) and. To be noted: tags: C-terminal 6xHis (pFBC6H baculovirus vector, Sf9), label: 5'-6FAM. As to the method:
as §1, §2

T1 sequence (Q9UBB5 145-213, one chain of several): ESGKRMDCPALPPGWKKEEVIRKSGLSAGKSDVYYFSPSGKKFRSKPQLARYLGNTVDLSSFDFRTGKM

For ATCGTCGTACGTTTTCGTACGACGAT (structured_DNA, 5mC at 2nd and 5th CpGs from 5' end (C6, C20)) [1 symmetrically methylated CpG hairpin], a half-maximal effect in data set [1] (EC50) was put at 519 nM.
In turn, ATCGTCGTACGTTTTCGTACGACGAT (structured_DNA, 5mC at 1st, 2nd, 5th and 6th CpGs from 5' end (C3, C6, C20, C23)) [2 symmetrically methylated CpG hairpin] registered an EC50 in data set [2] of 156 nM.

One may read the EC50 as the concentration at which the effect is half-maximal. Low readings indicate an effect from little substance, high ones a need for much substance.
